In the DeepSol protein solubility set:

Assay: soluble on expression in E. coli; label from the status in PepcDB or PDB records

| Sequence | soluble on expression in E. coli |
| --- | --- |
| IETNRRERRIKRNKYLLSLYNNTNIKTSNFIYPLFIHEEDVEKKHTQLEGIYTYNVDGIIKEIEECIKLNIHHFMFFPVIREENKTVYCEESYNENSYFCKTISRIKEKFSDDIIVYTDVALDPYNIYGHDGIYDDNKKEILNDITVHTLVKQSLCLAKSGADVVCPSDSMDKRIELIRKNLDFHNFRDILILSYTCKYSSSMYKPFRSILNSNILKNFVKNKQSYQHDFNSYMDLNNVDKHIIEGADIIMVKPSMFYLDIIHKIKNRIKDDVQIPIAVYNVSGEYMMIKNYVKYLNEDINYENEIITELFKSYLRAGANIIITYFAKQYGLYMKKLYDKNIIIDDNSNNNFNIELTL | soluble |
| IGDVNLTLRGNFTYSKSEILEYDEEYSNYPYKSQRGFRVDQTRGLIALGLFKDYDDIRNSPKQSWGDVMPGDIKYADVNGDGYVNDNDIVPIGATTRPNLVYGFGLSGQWKGIDINVLFQGSGKSTFCIDGPTVYPFENGDWGNILTDVVKSNRWILGENEDPNAKYPRLSYGGNSNNYRASTYWLRNGSYLRLKNLEIGYTIPKSLVNKMHLNNIRIYFMGTNLVTFSSFKLWDPELGSSNGQKYPLSKSYTLGLTINI | not soluble |
| IGQVNLSARGNFTFARNEIIEYDQVPQVYPWLEKRGTRLNSNKLYIAEGLYTYDDFIINGEGLNRTYELKPGVVSGLSSGVRPGDIKYKDLNGDGKIDSNDQKEDVGNPTVPEVVYGFGFNAEWKGFYAGIFFQGAGNTSTVLGTGADATFFPFQWGVEESAVRSVVADRWTEQNPSQNVMFPRMHSNNFQNNTVASTWWLRDASFLRLKNIELGYNFDKKLLKKLNIEALRFYVQGNNLCVWDHIKMWDPEQGNSNGGFPYPLNRTFTFGLDFTF | not soluble |
| IGQVNYNIGFNMADSRSFVDKYPNKSKSLSTYYKDQELGAIWGYVTHGIAKSQSEMDEWTKDNKPSWGSGWGEGDIMFEDLNGDKVINEGANTVDDPGDRKIIGNSTPRFRFGLDLGVEWKGIDFSMFWQGVAKRDLWLDGPMFWGISGGEWQSTGLKEHLDYYRPENTTSVFGPNTNAYFPKMYMSKDMNQKVQTRYLQNGAYARLKNIQLGYTFPTQIINKLHMQKLRVYVSAENVLTITSLPSGFDPETTYSNYSDGNSGKTYPLQTTISFGLNATF | not soluble |
| IGYWHYDADTDTATWSKGLFKILGLPPSNVALNYSSFLDLVHPNDKAGLKNVVEKALKEKEDYDYELRVRNGDNDYKWYRTIARANPHK | not soluble |
| IHTSPYSKDAPLVASLSVNQKITGRNSEKDVRHIEIDLGDSGLRYQPGDALGVWYQNDPALVKELVELLWLKGDEPVTVEGKTLPLNEALQWHFELTVNTANIVENYATLTRSETLLPLVGDKAKLQHYAATTPIVDMVRFSPAQLDAEALINLLRPLTPRLYSIASSQAEVENEVHVTVGVVRYDVEGRARAGGASSFLADRVEEEGEVRVFIEHNDNFRLPANPETPVIMIGPGTGIAPFRAFMQQRAADEAPGKNWLFFGNPHFTEDFLYQVEWQRYVKEGVLTRIDLAWSRDQKEKVYVQDKLREQGAELWRWINDGAHIYVCGDANRMAKDVEQALLEVIAEFGGMDTEAADEFLSELRVERRYQRDVY | soluble |
| IKEGQLAEKTIRANKNIENTYETEQRKKLAAEAVTPEYIYQEDTASVQHNRIDKLFKLIDSANEKVDKEYSNKQAKAKKEETIPAPTVEERVASLKSLFESLPQDEVTFYQSFPNVFYQTIFTLTSEQLDKVRSESLMLVDDAMQNHVRESDLDKIRQEANGKIQYLDITSTMQQVIRYIVNQGIVVNDIANEKRTEELRQKAMNAVQPAMIYQGEIIVREGTQIDAKAVEKLELLGMTSQNTS | not soluble |
| ILPQPDVRVNQVGYLPEGKKVATVVCNSTQPVKWQLKNAAGVVVLEGYTEPKGLDKDSQDYVHWLDFSDFATEGIGYYFELPTVNSPTNYSHPFDIRKDIYTQMKYDALAFFYHKRSGIPIEMPYAGGEQWTRPAGHIGIEPNKGDTNVPTWPQDDEYAGIPQKNYTKDVTGGWYDAGDHGKYVVNGGIAVWTLMNMYERAKIRGLDNWGPYRDGGMNIPEQNNGYPDILDEARWEIEFFKKMQVTEKEDPSIAGMVHHKIHDFRWTALGMLPHEDPQPRYLRPVSTAATLNFAATLAQSARLWKDYDPTFAADCLEKAEIAWQAALKHPDIYAEYTPGSGGPGGGPYNDDYVGDEFYWAACELYVTTGKDEYKNYLMNSPHYLEMPAKMGENGGANGEDNGLWGCFTWGTTQGLGTITLALVENGLPATDIQKARNNIAKAADRWLENIEEQGYRLPIKQAEDERGGYPWGSNSFILNQMIVMGYAYDFTGDSKYLDGMFDGISYLLGRNAMDQSYVTGYGERPLQNPHDRFWTPQTSKRFPAPPPGIISGGPNSRFEDPTINAAVKKDTPPQKCFIDHTDSWSTNEITVNWNAPFAWVTAYLDQYTD | soluble |
| INLSTLPEHLTYLVRSSRVLQELHESEAQNRALLNAIPDMMLHVCREGTILDFRAGNGCAYAAFGGNLRGRTIADLLPPGAAAQFMAQVGHALATGTMMVCEYELEGPGGLNTHEARIVANG | not soluble |
| INPAAHGAMDELLGELRLHTVCREARCPNITECFRERQATFLILGAECTRLCSFCNVTKGEPLPPDPDEPARVAQAVVRLSLAHVVITSPTRDDLPDGGAGHYVATVATIGRVAPATVVELLIPDFLGSRAALADVVAAAPRIIGHNVETVPRLYAIRAGADYGRSLAVLRTLRELAPGCATKSGLMLGLGETEEEVLAVMADLRRVDCTYLSLGQYLAPSRFHHPVREFVLPETFDRLKELAEKMGFRHVESGPY | not soluble |
| INYEKVGLKVGLEIHQQLNTKRKLFCHCPTILRDDEPDGEIVRVLRPSLSEMGEVDRAALIEARKGKKFIYQFYNDTTCLVELDEEPPHPPSEEALRIALEVALLMNMNVVDVAYTMRKIVIDGSNTSGFQRTIFLARDGYIETSEGKVGITSLCLEEDAARKIEDRGDAVVYNLDRLGIPLVEISTAPDIKTPKMAKEAARRIGEILRATGKVKRGLGTIRQDINISIKDGARIEVKGVQDLDLIEKVVENEVIRQLNLL | not soluble |
| IPVDLTWDLEAIFSTDEEWEKEFNEVKGLIPSLVQFKGKLSQSAEILYAALQQQDEITERLGRLYTYAHMRYDQDTTNSFYQGLNDRAQTLASQVGQAASFVVPELMSIEKEKIDTFLNEHEPLTLYRHMLDELNKQRPHVLSEAEESILAQASEVTSAPSNTFGMLNNADMTFPTIVNENGEEVEVTHGRYL | soluble |
| IRDFSYGVKFVLSDSQQKILKYPNEDYNIGTYYKGQKLNNIWGYKTIGIAQSQEEMDAHLAKVDQSALGSKWGAGDIMYADLDGDGKISTGSNKLGDTGDRVILGNSTPRFNYGLTIDASWKGIDFRAFFQGIGKRDYWLQGPYFWGSTGLGQWQAAGFKEHWDFWRPEGDPLGANTNAYYPRVARNGGKNTNVQSRYLQNAAYCRLKNIQIGYTLPKTWTEKAGMSSVRVYVSGDNLLTFSDITGIFDPEAIGSTYDANNGKLYPLQRVISVGLNVNF | not soluble |
| ITRDEVGELARVMNEMASQIERNLARISAEKNRLDTILRGMGEGLMVSDAGGTVTLVNPAFLELFGLTQSVEGRQIIEIARFPELHETFRAVVSSRSEHVEEMTLPLGDEKQVLTHWVPLMEE | not soluble |
| IVSREAKLQFAYLENFKTKMRSTVSVREGQGVVLLCGPPPHSGELSYAWIFNEYPSFVEEDSRRFVSQETGHLYISKVEPSDVGNYTCVVTSMVTNARVLGSPTPLVLRSDGVMGEYEPKIEVQFPETLPAAKGSTVKLECFALGNPIPQINWRRSDGLPFSSKIKLRKFSGVLEIPNFQQEDAGSYECIAENSRGKNVARGRLTYYAKPHWVQLIKDVEIAVEDSLYWECRASGKPKPSYRWLKNGAALVLEERTQIENGALTISNLSVTDSGMFQCIAENKHGLVYSSAELKVVASAPDFSKNPMKKLVQVQVGSLVSLDCKPRASPRALSSWKKGDVSVQEHERISLLNDGGLKIANVTKADAGTYTCMAENQFGKANGTTHLVVTEPTRITLAPSNMDVSVGESVILPCQVQHDPLLDIIFTWYFNGALADFKKDGSHFEKVGGSSSGDLMIRNIQLKHSGKYVCMVQTGVDSVSSAADLIVRGSPGPPENVKVDEITDTTAQLSWKEGKDNHSPVISYSIQARTPFSVGWQTVTTVPEVIDGKTHTATVVELNPWVEYEFRVVASNKIGGGEPSLPSEKVRTEEAVPEVPPSEVNGGGGSRSELVITWDPVPEELQNGEGFGYVVAFRPLGVTTWIQTVVTSPDTPRYVFRNESIVPYSPYEVKVGVYNNKGEGPFSPVTTVFSAEEEPTVAPSQVSANSLSSSEIEVSWNTIPWKLSNGHLLGYEVRYWNGGGKEESSSKMKVAGNETSARLRGLKSNLAYYTAVRAYNSAGAGPFSATVNVTTKKTPPSQPPGNVVWNATDTKVLLNWEQVKAMENESEVTGYKVFYRTSSQNNVQVLNTNKTSAELVLPIKEDYIIEVKATTDGGDGTSSEQIRIPRITSMDARGSTSAISNVHPMSSYMPIVLFLIVYVLW | soluble |
| KAELKMLEAIEEDLNTRFADVDRKQLRLGAAGTFQKQEDADQWYKMVKDTFENEIDDIYYDSLSFSIGCHVGPNAIGIGISVVTRDEK | not soluble |
| KAGQVDTNDLWSSIPVSPDEYITQRLPILVARMREQWSNNDHVKRYIDLCRRNIVGPRGIVMQAQSRKSRSGALDTAINDAIETWWQDWGRKGQCEVTGKLSWREIQTLCVETCARDGEFIARKIYGTHAGPHGFCLQLIDPLRLPVRYQMLKTDQTGGFVRQGIEFNRFGKPLAYHFSSIDERDTYYYSINGRGYIRVPAEEVIHIFKPVMVGQRRGLPWAATSLLRLHHLQGFEEAAVQNARAAASKMGFVCYPEGVGPRADEQENVAQTIQMNAGPLAIHELPQGAEFQDWNPQYPSGEFGLFTKAAKQSLAAGMDLSYHALSGDLADVNYSSIRQGTLDERERWKEDQQ | not soluble |
| KAPFLILMHRNPDPDAMASAMALKTIFDKWGVSSEIAYGGKIGYDENKAMVNLLSIKLNPIDEINLSRYCSIAVVDSSSSKTLPIDVEDSKLSVIIDHHNDSDIVAKYMDILPEIGATATILTKYLLELEIAPNRDLATALYYAITSDTNYFKRKTSKKDFEAASYLQGLMDPKVLEMIENPDM | not soluble |
| KEIIVNENDILLLWDGSNAGEIFLGKKGILSSTMVKLEQKNKIMDDLYLFYSLKLKESFLKSQTKGTGIPHVDKKIFENIKIPLPPLEEQKQIAKILSDFDN | not soluble |
| KEYFSVWMEDIIYFENSGRNVKIMTIDGTDLFVGNIKDIAKEVLPYGFIQISQSIIVNYNFVSKYSREEIILINKEKIAIPKNKRNGVKEQFL | not soluble |
| KFGIARSGAMDEDALRMANILLGNKQDEAGIELCLKGGKYEFLDENYFVLSGAEFEAKLDNQKIKTCKVYQANKGDILELDLAKIGFRGYLCVAGGFEVKSFLNSKSSDAKMGAGVFEGRALQKDDILNTHNTFIPFNLEARECENPLFKSPKEPIIRVILGTNEDAFTQKGIETFLNTTYKVGLKSDRMAIYAESSESIEHKNSADIISDPAVFGSIQVPKSGIPIILMAGRQSTGGYTKIATVIENDLSLLAQAKLGSSFKFQSISMQEALELYKQREMK | not soluble |
| KFTLGQFFGAAKIAGKAFMFKADEPEDLIAKIVEMADAARKGGFLALEEMEINNSFMQKGIDLLVDGHDADVVRAALQKDIALTDERHTQGTGVFRAFGD | not soluble |
| KGDDNYYIIFTSGTTGQPKGVQISHDNLLSFTNWMIEDAAFDVPKQPQMLAQPPYSFDLSVMYWAPTLALGGTLFALPKELVADFKQLFTTIAQLPVGIWTSTPSFADMAMLSDDFCQAKMPALTHFYFDGEELTVSTARKLFERFPSAKIINAYGPTEATVALSAIEITREMVDNYT | not soluble |
